Data as given in US12528864 (GlaxoSmithKline, dated 2026).
Like-named read-outs stand apart in the source and are kept apart here.

How the values were obtained:
[1] = biological target: T1, cynomolgus monkey CD96, native, on primary cynomolgus monkey T cells (cynomolgus monkey, UniProt A0A2K5TWV6 22-569); test: flow cytometry on activated cynomolgus monkey T cells, donor 1
T1 construct: whole, on cells
T1 sequence: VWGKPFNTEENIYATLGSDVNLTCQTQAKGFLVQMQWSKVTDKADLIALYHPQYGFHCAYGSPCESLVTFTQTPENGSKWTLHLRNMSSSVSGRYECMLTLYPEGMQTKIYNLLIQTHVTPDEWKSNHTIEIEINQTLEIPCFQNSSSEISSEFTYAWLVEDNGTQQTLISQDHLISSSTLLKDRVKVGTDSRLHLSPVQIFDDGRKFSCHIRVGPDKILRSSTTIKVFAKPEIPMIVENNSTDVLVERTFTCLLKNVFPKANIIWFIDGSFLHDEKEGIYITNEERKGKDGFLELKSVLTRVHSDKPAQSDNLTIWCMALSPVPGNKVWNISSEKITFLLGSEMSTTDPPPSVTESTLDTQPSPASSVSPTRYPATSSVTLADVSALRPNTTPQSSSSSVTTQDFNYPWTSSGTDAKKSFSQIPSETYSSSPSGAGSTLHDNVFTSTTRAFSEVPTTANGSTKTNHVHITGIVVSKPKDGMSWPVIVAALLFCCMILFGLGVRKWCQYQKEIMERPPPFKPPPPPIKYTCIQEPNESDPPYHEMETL

[2] = biological target: T1, cynomolgus monkey CD96, native, on …; test: flow cytometry on activated cynomolgus monkey T cells, pooled donor
[3] = biological target: T2, human CD96v1 on transiently transfected HEK cells (human, UniProt P40200 22-585); test: flow cytometry on transiently transfected HEK cells; geometric mean, n = 3
T2 construct: whole, on cells
T2 sequence (looked up): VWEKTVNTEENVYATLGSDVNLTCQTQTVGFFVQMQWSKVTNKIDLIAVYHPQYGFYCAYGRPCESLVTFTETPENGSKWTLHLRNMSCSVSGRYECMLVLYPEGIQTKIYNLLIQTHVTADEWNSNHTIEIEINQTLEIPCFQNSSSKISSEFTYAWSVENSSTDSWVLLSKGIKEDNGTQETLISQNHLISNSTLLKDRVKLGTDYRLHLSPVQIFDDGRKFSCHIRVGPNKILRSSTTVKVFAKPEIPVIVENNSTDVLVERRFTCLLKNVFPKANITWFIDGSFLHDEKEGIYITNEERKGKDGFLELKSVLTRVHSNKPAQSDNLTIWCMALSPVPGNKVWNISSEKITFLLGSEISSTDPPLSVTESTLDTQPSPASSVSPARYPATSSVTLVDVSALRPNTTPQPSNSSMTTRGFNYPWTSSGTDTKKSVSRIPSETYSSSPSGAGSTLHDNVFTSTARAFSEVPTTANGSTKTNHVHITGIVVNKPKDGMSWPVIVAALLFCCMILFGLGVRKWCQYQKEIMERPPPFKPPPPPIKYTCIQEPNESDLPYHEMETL

[4] = biological target: T3, cynomolgus monkey CD96v1 on transiently transfected HEK cells (cynomolgus monkey); test: as above
T3 construct: whole, on cells; also called Cyno CD96v1

[5] = biological target: T4, blood derived cynomolgus monkey CD96v2 on transiently transfected HEK cells (cynomolgus monkey); test: as above
T4 construct: also called Blood derived Cyno CD96v2

[6] = biological target: T5, human CD96v2 expressed on cells (CHO cells; transiently transfected HEK cells) (human, UniProt P40200-2 22-569); test: flow cytometry on transiently transfected HEK cells; lower end of range, n = 3
T5 construct: whole, on cells; the cell is named under assay; also called CHO-huCD96; hCD96v2
T5 sequence (looked up): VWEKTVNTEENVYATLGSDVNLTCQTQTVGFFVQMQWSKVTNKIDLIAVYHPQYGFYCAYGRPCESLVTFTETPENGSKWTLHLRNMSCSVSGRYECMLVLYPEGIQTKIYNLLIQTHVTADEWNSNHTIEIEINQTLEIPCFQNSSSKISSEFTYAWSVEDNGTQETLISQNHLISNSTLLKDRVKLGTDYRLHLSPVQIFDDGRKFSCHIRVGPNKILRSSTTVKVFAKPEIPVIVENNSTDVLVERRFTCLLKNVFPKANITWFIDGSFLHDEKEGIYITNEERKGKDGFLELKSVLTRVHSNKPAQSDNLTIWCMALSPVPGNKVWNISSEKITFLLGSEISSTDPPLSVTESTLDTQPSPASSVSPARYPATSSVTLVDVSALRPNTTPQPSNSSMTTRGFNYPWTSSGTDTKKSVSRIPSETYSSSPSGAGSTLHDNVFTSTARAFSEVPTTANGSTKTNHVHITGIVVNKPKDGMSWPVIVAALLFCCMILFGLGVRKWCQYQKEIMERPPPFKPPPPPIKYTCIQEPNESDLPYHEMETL

[7] = biological target: T6, cynomolgus monkey CD96v2 expressed on cells (CHO cells; transiently transfected HEK cells) (cynomolgus monkey, UniProt A0A2K5TWV6 22-569); test: as above
T6 construct: the cell is named under assay; also called CHO-cyCD96; Cyno CD96v2
T6 sequence: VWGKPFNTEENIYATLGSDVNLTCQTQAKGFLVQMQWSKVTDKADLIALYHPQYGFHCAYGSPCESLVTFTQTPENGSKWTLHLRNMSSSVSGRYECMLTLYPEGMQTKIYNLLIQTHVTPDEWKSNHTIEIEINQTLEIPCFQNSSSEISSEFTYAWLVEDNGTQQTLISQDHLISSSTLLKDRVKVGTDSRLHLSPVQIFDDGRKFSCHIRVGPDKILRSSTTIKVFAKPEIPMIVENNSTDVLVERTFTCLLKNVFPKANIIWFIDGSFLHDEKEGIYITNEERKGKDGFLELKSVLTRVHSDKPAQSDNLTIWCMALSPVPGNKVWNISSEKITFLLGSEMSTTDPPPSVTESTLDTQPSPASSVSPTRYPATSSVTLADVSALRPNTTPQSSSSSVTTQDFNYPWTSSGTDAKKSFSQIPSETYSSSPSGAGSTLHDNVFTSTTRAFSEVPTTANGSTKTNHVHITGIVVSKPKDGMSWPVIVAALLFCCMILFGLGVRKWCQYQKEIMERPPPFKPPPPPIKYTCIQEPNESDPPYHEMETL

[8] = biological target: T2, human CD96v1 on transiently transfected …; test: as above
[9] = biological target: T3, cynomolgus monkey CD96v1 on transiently …; test: as above
[10] = biological target: T4, blood derived cynomolgus monkey CD96v2 …; test: as above
[11] = biological target: T4, blood derived cynomolgus monkey CD96v2 …; test: flow cytometry on transiently transfected HEK cells (Cyno blood derived CD96v2)
[12] = biological target: T4, blood derived cynomolgus monkey CD96v2 …; test: as above; remark: listed apart in the source
[13] = biological target: T1, cynomolgus monkey CD96, native, on …; test: flow cytometry on activated cynomolgus monkey CD3+ T cells; mean of 3 samples; cynomolgus monkey CD3+ T cells activated with anti-CD2/3/28 beads for 17 days; mean of 3 samples

B1: 42Y073-86F08-66 (antibody)
heavy: not shown
light: DIQLTQSPSSLSASVGDRVTITCRASQSISSYLNWYQQKPGKAPKLLIYAASSLQSGVPSRFSGSGSGTDFTLTISSLQPEDFATYYCQQVLHTITFGGGTKVEIKRTVAAPSVFIFPPSDEQLKSGTASVVCLLNNFYPREAKVQWKVDNALQSGNSQESVTEQDSKDSTYSLSSTLTLSKADYEKHKVYACEVTHQGLSSPVTKSFNRGEC
notes: also called GSK 6097608; GSK6097608
B1 was tested, and the “EC50 (read off the curve)” value [1] was about 0.05 nM, the “EC50 (read off the curve)” value [2] was about 0.05 nM and the EC50 [3] was 5.28 nM. The EC50 [4] was 9.17 nM, the EC50 [5] was 7.34 nM and the EC50 [6] was 4.72 nM. For the same binder, the EC50 [7] was 5.54 nM, the EC50 [8] was 3.13 nM and the EC50 [9] was 6.83 nM. The EC50 [10] was 5.27 nM, the “EC50 (read off the curve)” value [11] was about 7 nM and the “EC50 (read off the curve)” value [12] was about 9 nM. It also gave an EC50 [13] of 0.0766 nM.
